Assay results from the DeepSol protein solubility set.

Assay: soluble on expression in E. coli; label from the status in PepcDB or PDB records

Sequence | soluble on expression in E. coli
MEVDGASDDEQEQIIRKLVKKPEFLSDEEDDSVEDQVVWECDVVVCNSTPNTEMFSVSYPSSKRDAWDAKRFPIARYKKNVRLLEMRFMTDTQLGSYDKKKAELMYMDGDVPKKGHGIDALRANDEIYEGRAFIHDHPIVNAIGFFKNGEFFIHPLTGAFEMHRSIQGLNKKKKSDGKSGKSDEDSSGEEEDVKPSSAAVRVKFSRPETERQKKRREASALHREKKIASDMWIPMKVHLKDGDPVAEKIDGISQNGLLLDDPEASRMSIRALVNRAIICGVKEELVIESGKEHMLSKQRIDDLPDPNLQLKAHMVKSHVMKTSEMRRLIDPSAMSTDKMIAKLKECASLVQGVWVLDSNLMFKNLAPAHSNTAGKTDLYRAELWRNARDLALCLIDGGHRVTRLTLMTCFKLSERDSDEILSTFGVKCEATRSWRLRVERDAQFLEDPAMKKHVVEQKAKWVQKFNELEKSLQESPAKSPKKK | not soluble
MAKKTSSKGKLPPGPSPLPVLGNLLQMDRKGLLRSFLRLREKYGDVFTVYLGSRPVVVLCGTDAIREALVDQAEAFSGRGKIAVVDPIFQGYGVIFANGERWRALRRFSLATMRDFGMGKRSVEERIQEEARCLVEELRKSKGALLDNTLLFHSITSNIICSIVFGKRFDYKDPVFLRLLDLFFQSFSLISSFSSQVFELFSGFLKYFPGTHRQIYRNLQEINTFIGQSVEKHRATLDPSNPRDFIDVYLLRMEKDKSDPSSEFHHQNLILTVLSLFFAGTETTSTTLRYGFLLMLKYPHVTERVQKEIEQVIGSHRPPALDDRAKMPYTDAVIHEIQRLGDLIPFGVPHTVTKDTQFRGYVIPKNTEVFPVLSSALHDPRYFETPNTFNPGHFLDANGALKRNEGFMPFSLGKRICLGEGIARTELFLFFTTILQNFSIASPVPPEDIDLTPRESGVGNVPPSYQIRFLARHHHHHH | soluble
MASSGYLYSLVAEDGVWQAFVSKAKLSRERAVALHKALRELTALLAIADRGRLQKGLKGREKFLKVFPRLKAELVEHISQLHALADHAEKLHRGCTISNVVADSFSAASDILSLLGLFLAPVTAEGSLVLSATGLGLGVAATVTDVATSIVEETSRVLDEVEAAPTGTHVLGEAGTSVDRIASKVPQATRDITRDLEALEQHMNALRLVRANPRLEEDARILATTGSISAQRAMQVRASLKGTPLAMSNEARIQRATAAGAALWSDVDSLVKESKHLYEGSASESAEALRKLARELEEKLEGLMEFYKTI | soluble
MTVLAQLYYKYGTMNSGKTIEILKVAHNYEEQGKPVVIMTSSLDTRDGFGVVASRIGMRREAVTITDDMDIFAYIENMFKKPYCILIDESQFLSQKNVYDLARIVDELDVPVMAFGLKNDFQNHLFEGSRELLLLADKIEEIKTICQFCSKKATMVLRTENGRPVYKGNQIQIGGNETYIPVCRRHYFHPPIKALEHHHHHH | not soluble
MEGSEEHSTDGEISSSEEEDEDPTPAHAIPARPSSVVITPTSASFVIPRKKWDLQDKTVTLHRSPLCRDEDEKEETGNSSYTRGHKRRRGEVHGCTDESYGKRRHLPPGARAPRAPRAPRVPRAPRSPRAPRSNRATRGPRSESRGAGRSTRKQARQERSQRPLPNKPWFDMSLVKPVSKITFVTLPSPLASLTLEPIQDPFLQSMLAVAAHPEIGAWQKVQPRHELRRSYKTLREFFTKSTNKDTWLDARMQAIQNAGLCTLVAMLEETIFWLQEITYHGDLPLAPAEDILLACAMSLSKVILTKLKELAPCFLPNTRDYNFVKQLFYITCATARQNKVVETLSSSYVKQPLCLLAAYAAVAPAYINANCRRRHDEVEFLGHYIKNYNPGTLSSLLTEAVETHTRDCRSASCSRLVRAILSPGTGSLGLFFVPGLNQ | soluble
NCHIFKTKAKESQGASPTLGQSEAYHRQNKPYEQQPYGFGVGKKMTSSSKSKVPIFKSFNLKSYQRNHYYSSKKERKHGSPDIDSLFHETNGASKVRMTDAGKMDTNSQFQEIWEILGKNAYTHKSYSEDPNSCLGSALSDHEEEEEAGKQQQQQQQQQQQQQHYGMTSKSSSPDEEKKNNKEPKRESRVSPEENGEEETGHKQFKLPKTSTFSSGSHDSNLQSPFYNHEYRHYARSKFECKNQFRKSVSPIKEIPATTSANEGWNILRDIIEKLNISNVDDRNKDLLFRRDEIGDKNHSDSIDIENLSIKEPKGMKRRKKDDISLEELFQSLPREKDYFMMDAINDSLESINLFKKPKTTQSHEQGGTFAQAESNRAKFKPLLEQCGITPEI | not soluble
MFAPQGLAQFIKVNVTLENGEPVFIYTDANGQVCQGDITVTQAGTITYLLNDQTLKGLKFVGVGFVTPFDGIIDAVTISSDGMLVQLVDLDKTPGTTKFQFVLSNTANTLLVLSPDPQIINRPQN | soluble
MSAFFLNMEKSIITQKIIAKAFKDLMQSNAYHQISVSDIMQTAKIRRQTFYNYFQNQEELLSWIFENDFAELINDNSDYYGWQNELLLLLRYLDENQIFYQKIFVIDKNFEHFFLIQWENLLDKVIFDQEKKSDYHWSDLEKSFICRYNAAAICAITRESIIRGNSLEKLYSQIVNLLLAQIKIFESLEHHHHHH | soluble
MAHHHHHHMAAVTQQGNDTRKLRCNVYVASLPLDFDDDQLFDLFSPYGRISSARIMRSKGARQSRGYGFVLFRHASSAEKAIDSLVGYVIGGSRIQVRLAHPEASVAYSGQRGSRSGNSTPGALPEKTLPAASGVITPPPPSSAIISHPNDSGMMVQTYPITTMYPTMYPSVVPQIIAQPQAPVPAAMQQVVFLPQYAQQSNQSTPPTFYMMVPDAMQAVPPTLS | soluble
MGHHHHHHSHMSRPGHGGLMPVNGLGFPPQNVARVVVWEWLNEHSRWRPYTATVCHHIENVLKEDARGSVVLGQVDAQLVPYIIDLQSMHQFRQDTGTMRPVRRNFYDPSSAPGKGIVWEWENDGGAWTAYDMDICITIQNAYEKQHPWLDLSSLGFCYLIYFNSMSQMNRQTRRRRRLRRRLDLAYPLTVGSIPKSQSWPVGASSGQPCSCQQCLLVNSTRAASNAILASQRRKAPPAPPL | not soluble
MSLKPWLLMMLTTLLVGCGGTPQPKVSFYLLPNNPELSEHIQPKTLPLLVVQPVELAAYLDTQGIVYRQSETQVIQARQNQWAQRLSPQLTQRITNDLRRKQSRYWPAPLNASSIQQEHWKLQVRLQRFNGVYTGNAEVAGNWELLNPKGESMLNQEFSFQVPLKDTGYPALVEALSAGVDQLSTQIETQLVTREGHHHHHH | soluble
MKLSKDTTALLKNFATINSGIMLKSGQFIMTRAVNGTTYAEANISDVIDFDVAIYDLNGFLGILSLVNDDAEISQSEDGNIKIADARSTIFWPAADPSTVVAPNKPIPFPVASAVTEIKAEDLQQLLRVSRGLQIDTIAITVKEGKIVINGFNKVEDSALTRVKYSLTLGDYDGENTFNFIINMANMKMQPGNYKLLLWAKGKQGAAKFEGEHANYVVALEADSTHDF | soluble
IGQVNLQLRANFTYQTTDIIDKDEAANELWYKMDKGFQLNQSRGLIALGLFKDQDEIDRSPKQTSNRPILPGDIKYKDVNGDGVINDDDIVPLGYREVPGLQYGVGLSANWRNWNLSVLFQGTGKCDFFIGGNGPHAFRSERYGNILQAMVDGNRWIPKEISGTTATENPNADWPLLTYGNNDNNNRKSTFWLYERKYLRLRNVEVSYDFPQTWTRKFFVSNLRLGFVGQNLLTWAPFKMWDPEGTREDGSNYPINKTFSCYLQISF | not soluble
MASRLFGVKCHNTDSEPLKNEDLLKNLLTMGVDIDMARKRQPGVFHRMITNEQDLKMFLLSKGASKEVIASIISRYPRAITRTPENLSKRWDLWRKIVTSDLEIVNILERSPESFFRSNNNLNLENNIKFLYSVGLTRKCLCRLLTNAPRTFSNSLDLNKQMVEFLQAAGLSLGHNDPADFVRKIIFKNPFILIQSTKRVKANIEFLRSTFNLNSEELLVLICGPGAEILDLSNDYARRSYANIKEKLFSLGCTEEEVQKFVLSYPDVIFLAEKKFNDKIDCLMEENISISQIIENPRVLDSSISTLKSRIKELVNAGCNLSTLNITLLSWSKKRYEAKLKKLSRFAHHHHHH | soluble
MKNTLKLPLLIGVAGGTSCGKSTIVERIIENLNANAKQSGRQIDIVHLSLHSFYRELSAEEKILAREGKFNFDHPDQINFDLLAETLQNMIDGKTVEIPKYDMITSSMNGTVTVEPAKVIIIEGILLLYDERVRKLLSTKLFVEKNAESRLRNRLATYIRDYHRAPLSIIRQYTEFVKPAFEEFCRPTKKYADVIIPRGADNHVATDLIAKNLQVRFKRQNNALFDFEL | not soluble
MSLSGRAGRHERTGEVIVQSYNPEHYSIEFAKKHDFIGFYNHEMQLRKMGSYPPFYYLTMINVSDENEMKAIRTIQEMAQFLRGKLGPDAVILGPVPSTITRIKNKYRYQCIIKYKIEPNLKKELKTLITHYQKDQQKGLTITIDVQPYVLMEGHHHHHH | soluble
MSTSGSGGGNTPDLSKENVASSPNANPKKNADTESSGGSKNNRQRRRSNTKGDGSNSRNGSRTNSVSNSKNQSNRKDWTDRKSFSQGGINVKSKSPGDDHKRTRSSNSQSAKRNARDSTRTMSQASNGEGLDYSDEYELDEPFSDSDDEDSRPKKPEKMSLTVARGRIRTLSGTVPVVGYSPRWGGPTMCVSCLEFFDLPEQISGFADHLLKEHKIVVSEMNLIVDPKRYIEHWRQRFAKESIDKIFPRIEPSEGDSYFGETDYYYLMSENVAEDRSLRQRLAMRRLEEALQCQQREREDTSFQLQCIFCRYNARGNRSKIIHHLYMIHHLNLGSPDNLVFVTEYIEHLKEKLHRNECIYCEKIFPDRNTLMDHMRKRNHREVNPKNHYYDKFYIINYLELGKRWLDVLAEDFEDTMPTFQDSDEEEEDNEWCEWQEDNLDADETRVVCLLCDASEDNAQSLLEHMKTTHEFDLLKNVSDDKLNSYQRLRLINYIRKQNYHADCWVCQKTEFENPLALQKHILEHKPLSHLPDASIWDTEENLVPIFGNDHFLWMLESILEENEITCSSDDEGESEERFSKLVLESKSNTVEGVIAEDLPELSELNEDDLNALM | not soluble
MKEIILLVFLSRKEQTNRSANIFSSVLKGFEAQTIVYSLSYQKFYSNRKNKHKDETILVTAIYRCRRNPHGMQLKQCSPSVGSGAKTRTSGRLRP | not soluble
MSLKNQKPLAELLRPSTLEEYFGQNKLIGEQTLLRSLLKSQEIPSLILWGPPGCGKTTLAHIIASSIKQKGTGRFVTLSATSASVSDVREVIKQAQNELRLCKRKTVLFIDEIHRFNKSQQDTFLPHVECGTITLIGATTENPSFQVNSALLSRCRVLVLERLSVEAVGSILRRAVDFLDLRILDSEERHSSEICSEAQVCVEQKALDTLAHLCDGDARAALNGLQLAVQACVLQSSSNHNRSSTVVREQHIKEALQRSHILYDKAGEEHYNCISALHKSMRGSDANAALYWLARMLEGGEDPLYVARRLVRFASEDIGLADPVALSQAVAAFQACHLIGMPECEVILAQCAVYLARAPKSVEVYKAYNNVKMCLRNHKGPLPSVPLHLRNAPTKLMKNLGYAKGYKYNPNYSGPVKQEYLPEELRGVDFFTWTPSEGHHHHHH | not soluble
MILMIDNYDSFTFNLVQFLGELGQELVVKRNDEVTISDIENMKPDFLMISPGPCSPNEAGISMDVIRYFAGKIPIFGVCLGHQSIAQVFGGEVVRAERLMHGKTSPMHHDGKTIFSDIPNPFTATRYHSLIVKKETLPDCLEVTSWTEEGEIMALRHTTLPIEGVQFHPESIMTSHGKELLQNFIRKYSPSVTSC | not soluble
AIAEEDEFIGEKTFQRYCAEFIKHSQQIGDSWEWRPSKDCSDGYMCKIHFQIKNGSVMSHLGASTHGQTCLPMEEAFELPLDDCEVIETAAASEVIKYEYHVLYSCSYQVPVLYFRASFLDGRPLTLKDIWEGVHECYKMRLLQGPWDTITQQEHPILGQPFFVLHPCKTNEFMTPVLKNSQKINKNVNYITSWLSIVGPVVGLNLPLSYAKATSQDERNVP | soluble
